Substrate: C[C@@H](O)C(=O)O
Test: TP_TRANSPORTER: uptake in Xenopus laevis oocytes
Assay type: functional, cell-based
Settings: Oocyte

B1: Monocarboxylate transporter 1 (Rattus norvegicus), P53987 (protein)
chain: MPPAIGGPVGYTPPDGGWGWAVVVGAFISIGFSYAFPKSITVFFKEIEIIFSATTSEVSWISSIMLAVMYAGGPISSILVNKYGSRPVMIAGGCLSGCGLIAASFCNTVQELYFCIGVIGGLGLAFNLNPALTMIGKYFYKKRPLANGLAMAGSPVFLSTLAPLNQAFFGIFGWRGSFLILGGLLLNCCVAGSLMRPIGPQQGKVEKLKSKESLQEAGKSDANTDLIGGSPKGEKLSVFQTVNKFLDLSLFTHRGFLLYLSGNVVMFFGLFTPLVFLSNYGKSKHFSSEKSAFLLSILAFVDMVARPSMGLAANTRWIRPRVQYFFAASVVANGVCHLLAPLSTTYVGFCIYAGVFGFAFGWLSSVLFETLMDLVGPQRFSSAVGLVTIVECCPVLLGPPLLGRLNDMYGDYKYTYWACGVILIIAGLYLFIGMGINYRLVAKEQKAEEKKRDGKEDETSTDVDEKPKKTMKETQSPAPLQNSSGDPAEEESPV
- Km: 5.6 mM

Source: ChEMBL document CHEMBL2074141, “Comparison of lactate transport in astroglial cells and monocarboxylate transporter 1 (MCT 1) expressing Xenopus laevis oocytes. Expression of two different monocarboxylate transporters in astroglial cells and neurons” (J Biol Chem, 1997)
